We go through three molecules from US20110111406A1 (published 2011).

The target in assay [1] is T1, soluble mouse IL-31 receptor (mouse, UniProt Q8K5B1 19-499).
T1 construct: Soluble form
T1 sequence (looked up): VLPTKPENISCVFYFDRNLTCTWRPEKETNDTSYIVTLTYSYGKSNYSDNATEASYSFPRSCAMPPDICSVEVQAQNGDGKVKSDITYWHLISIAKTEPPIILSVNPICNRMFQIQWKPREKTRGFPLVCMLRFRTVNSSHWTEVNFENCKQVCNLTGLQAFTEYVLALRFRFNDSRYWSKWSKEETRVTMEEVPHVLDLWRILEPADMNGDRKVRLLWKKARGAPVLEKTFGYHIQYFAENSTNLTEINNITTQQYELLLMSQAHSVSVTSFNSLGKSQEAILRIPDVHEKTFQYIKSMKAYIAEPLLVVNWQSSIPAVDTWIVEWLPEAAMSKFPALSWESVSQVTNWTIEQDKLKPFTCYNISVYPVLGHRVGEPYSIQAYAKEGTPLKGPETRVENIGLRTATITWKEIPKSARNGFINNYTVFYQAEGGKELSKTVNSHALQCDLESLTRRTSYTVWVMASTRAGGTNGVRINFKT
As to the kind of experiment: Biacore T100, soluble mouse IL-31 receptor as analyte; KD(pH 5.5)/KD(pH 7.4) compared with Anti-IL31R wild type. As to the method:
Kinetic analysis of antigen-antibody reactions at pH 5.5 and pH 7.4 was carried out using Biacore T100 (GE Healthcare) for the two types of antibodies prepared as mentioned above: Anti-IL31R wild type and Anti-IL31R clone 1 (buffer: DPBS(−) (pH 7.4 or pH 5.5), 150 mM NaCl, 0.01% Tween 20, 0.02% NaN₃). The antibodies were bound to a sensor chip on which recomb-protein A/G (Pierce) was immobilized by amine coupling, and then the soluble mouse IL-31 receptor (prepared according to the method described in WO 2007/142325) adjusted to an appropriate concentration was injected therein as an analyte. All the measurements were carried out at 25° C. Association rate constants kₐ (1/Ms) and dissociation rate constants kd (1/s) were calculated using Biacore T100 Evaluation Software (GE Healthcare), and dissociation constants KD (M) were calculated based on those values (Table 16). Furthermore, the ratio of affinity at pH 5.5 and pH 7.4 was calculated for each clone to evaluate the pH-dependent binding.
For orientation: SPR reads the build-up and loss of mass on a sensor chip optically.

The target of assay [2] is T2, recombinant soluble human IL-6 receptor (SR344) (human, UniProt P08887 20-344).
T2 construct: In the 'membrane-type IL-6 receptor' Biacore assays the same SR344 was biotinylated and immobilized via streptavidin; also called soluble IL-6 receptor; membrane-type IL-6 receptor (as biotinylated SR344 immobilized on the sensor chip)
T2 sequence (looked up): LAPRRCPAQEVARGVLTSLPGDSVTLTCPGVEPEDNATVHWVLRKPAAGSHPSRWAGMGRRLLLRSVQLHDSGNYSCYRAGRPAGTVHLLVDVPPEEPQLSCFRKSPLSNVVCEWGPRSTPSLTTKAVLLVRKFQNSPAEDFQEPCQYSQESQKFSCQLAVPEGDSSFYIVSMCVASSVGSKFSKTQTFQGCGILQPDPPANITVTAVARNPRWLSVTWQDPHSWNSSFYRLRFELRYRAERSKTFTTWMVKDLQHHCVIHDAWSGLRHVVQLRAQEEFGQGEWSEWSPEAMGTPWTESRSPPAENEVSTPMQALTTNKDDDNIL
Description: Biacore T100, SR344 as analyte; KD(pH5.8)/KD(pH7.4) compared with WT. The procedure: (§1) Kinetic analyses of antigen-antibody reactions at pH 5.8 and pH 7.4 were carried out using Biacore T100 (GE Healthcare) on the four antibodies: humanized PM1 antibody (WT) and H3pI/L73, CLH5/L73, and H170/L82 produced in Examples 2 and 4 (buffer: 10 mM MES (pH 7.4 or pH 5.8), 150 mM NaCl, and 0.05% Tween 20). Various antibodies were bound onto a sensor chip immobilized with recomb-protein A/G (Pierce) by amine coupling. SR344 adjusted to concentrations of 9.8 to 400 nM was injected to the chip as an analyte. […] All the measurements were carried out at 37° C. Association rate constants kₐ (1/Ms) and dissociation rate constants kd (1/s) were calculated using Biacore T100 Evaluation Software (GE Healthcare), and dissociation constants KD (M) were calculated on the basis of those values (Table 5). Moreover, the ratio of the affinities at pH 5.8 and pH 7.4 were calculated for each clone to evaluate pH-dependent binding. All the measurements were carried out at 37° C.

The target of assay [3] is T2, recombinant soluble human IL-6 receptor …. Description: Biacore T100, antibody captured on protein A/G, SR344 as analyte, 37C; ratio of KD at pH 5.8 to pH 7.4. The procedure: as §1
Assay [4] shares this target. As to the kind of experiment: Biacore T100, integrated RU of SR344 bound over ten cycles of pH 7.4 binding and pH 5.8 exposure, 37C. From the text:
Biacore (GE Healthcare) was used to evaluate that the antibodies binding at pH 7.4 and dissociating at pH 5.8 were able to bind to the antigen multiple times. The antibody to be evaluated was bound to a recomb-protein A/G (Pierce)-immobilized sensor chip by the amine coupling method, and a mobile phase of pH 7.4 was allowed to flow (step 1). SR344 solution adjusted to pH 7.4 was then allowed to flow as an analyte to bind SR344 to the antibody at pH 7.4 (step 2). This binding at pH 7.4 mimics the antigen binding in plasma. Subsequently, buffer adjusted to pH 5.8 alone (not containing SR344) was added as an analyte to expose the antigen bound to the antibody to acidic conditions (step 3). This dissociation at pH 5.8 mimics the binding state of antigen-antibody complexes in endosomes. Subsequently, step 2 was repeated. This mimics the rebinding of antibody that has been returned to plasma by FcRn to a new antigen. Subsequently, […] was repeated to expose the antibody-antigen complex to acidic conditions.
The produced pH-dependent binding clones described above were analyzed using Biacore T100 (GE Healthcare) for their ability to bind to the antigen SR344 multipe times at pH 5.8 and pH 7.4. More specifically, the analysis was carried out as follows. All the measurements were carried out at 37° C. […]

The target is the same in assay [5]. Description: Biacore T100, antibody captured on protein A/G, SR344 as analyte, 37C; ratio of KD at pH 5.8 to pH 7.4. As to the method: (§2) Kinetic analysis of antigen-antibody reactions at pH 7.4 and pH 5.8 was carried out using Biacore T100 (GE Healthcare) for the four types of antibodies prepared: WT-IgG1, H54/L28-IgG1, H170/L82-IgG1, and Fv4-IgG1(buffer: 10 mM MES (pH 7.4 or pH 5.8), 150 mM NaCl, 0.05% Surfactant-P20). The antibodies were bound to a sensor chip on which recomb-protein A/G (Pierce) was immobilized by amine coupling, and SR344 adjusted to an appropriate concentration was injected therein as an analyte. The association with and dissociation from SR344 of each type of antibody were observed on a real-time basis. All the measurements were carried out at 37° C. Association rate constants kₐ (1/Ms) and dissociation rate constants kd (1/s) were calculated using Biacore T100 Evaluation Software (GE Healthcare), and dissociation constants KD (M) were calculated based on those values (Table 17).
The source holds these as a separate data set.

The target is the same in assay [6]. Description: Biacore T100, antibody captured on protein A/G, SR344 as analyte, 37C; ratio of kd at pH 5.8 to pH 7.4. The procedure:
as §2

Like-named read-outs stand apart in the source and are kept apart here.

B1: Anti-IL31R clone 1 (antibody, human IgG1, lambda, V domains shown)
VH: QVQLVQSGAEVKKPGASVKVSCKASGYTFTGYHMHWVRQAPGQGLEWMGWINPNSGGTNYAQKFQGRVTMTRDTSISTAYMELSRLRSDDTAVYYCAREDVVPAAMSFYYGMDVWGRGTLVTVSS
VL: LPVLTQPPSVSVAPGQTARITCGGNNIGSKTVYWYQQEPGQAPVLVVYDDTDRPAGIPERFSGANSGNTATLTISRVEAGDEADYYCQVWDSSTDHGVFGGGTKLTVLG
Turning to B1, the “pH-dependent binding ability relative to WT” value in assay [1] was ~300 times.

B2: CLH5/L73 (antibody, IgG1, V domains shown)
VH: QVQLQESGPGLVKPSETLSLTCAVSGYSISHDHAWSWVRQPPGEGLEWIGHISYSGITNYNPHLKGRVTISRDTSKNQFSLKLSSVTAADTAAYYCARFLARITAHDHWGEGTLVTVSS
VL: DIQMTQSPSSLSASVGDSVTITCQASQHISSHLNWYQQKPGKAPELLIYYGSHLHSGVPSRFSGSGSGTDFTFTISSLEAEDAATYYCGQGNRLPYTFGQGTKVEIE
For the molecule B2, the “pH-dependent binding (affinity ratio) relative to WT” value in assay [2] is 15 times. Further, the “KD(pH5.8)/KD(pH7.4)” value in assay [3] turned out to be 66.1. Moreover, in assay [4], the “total amount of antigen bound over ten cycles relative to WT” value is ~4 times.

B3: H170/L82 (antibody, IgG1, V domains shown)
VH: QVQLQESGPGLVKPSETLSLTCAVSGHSISHHHAHSWVRQPPGEGLEWIGYISYSGITHYNPHLKGRVTISRDTSKNQFSLKLSSVTAADTAAYYCARVLARITAMDHWGEGTLVTVSS
VL: DIQMTQSPSSLSASVGDSVTITCQASQDISSHLNWYQQKPGKAPELLIYYGSHLHSGVPSRFSGSGSGTDFTFTISSLEAEDAATYYCGQGNRLPYTFGQGTKVEIE
notes: expressed and purified as IgG (IgG1); also called H170/L82-IgG1
In the case of B3, in assay [2], the “pH-dependent binding (affinity ratio) relative to WT” value is 15 times. Moreover, the “KD(pH5.8)/KD(pH7.4)” value in assay [3] amounted to 394; in assay [5] it was 61.9. The “total amount of antigen bound over ten cycles relative to WT” value in assay [4] is ~4 times. Moreover, the “kd(pH 5.8)/kd(pH 7.4)” value in assay [6] was 11.4.
